Reference: paper PMC8648464

B1: 70nt poly(dT) (ssDNA)
DNA: TTTTTTTTTTTTTTTTTTTTTTTTTTTTTTTTTTTTTTTTTTTTTTTTTTTTTTTTTTTTTTTTTTTTTT

Experiments:
[1] = biological target: T1, E. coli single-stranded DNA binding protein (SSB) (Escherichia coli, UniProt P0AGE0 1-178); experiment: competition
[2] = biological target: T1, E. coli single-stranded DNA binding …; experiment: single-molecule free solution hydrodynamic separation
[3] = biological target: T1, E. coli single-stranded DNA binding …; experiment: as above; remark: listed apart in the source
[4] = biological target: T1, E. coli single-stranded DNA binding …; experiment: competition; remark: listed apart in the source

T1 sequence (P0AGE0 whole entry): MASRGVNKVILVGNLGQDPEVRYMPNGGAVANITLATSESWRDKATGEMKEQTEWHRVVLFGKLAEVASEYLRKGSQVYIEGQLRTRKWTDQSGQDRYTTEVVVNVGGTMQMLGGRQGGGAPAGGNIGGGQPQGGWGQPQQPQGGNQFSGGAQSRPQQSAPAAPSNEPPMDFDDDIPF

Binder	Kd [1]	Kd [2]	Kd [3]	Kd [4]
TTTTTTTTTTTTTTTTTTTTTTTTTTTTTTTTTTT (ssDNA) [35nt poly(dT)]	11.7 ± 0.6 nM	10 ± 0.5 nM		
B1			21.7 ± 0.2 nM	22.1 ± 1.5 nM
